Source: patent US20200317802A1
Where a chain is given by its changes, count along the chain named.

T1: human ADAMTS4 (R&D Systems cat #4307-AD) (human) (UniProt O75173)
T1 sequence (looked up): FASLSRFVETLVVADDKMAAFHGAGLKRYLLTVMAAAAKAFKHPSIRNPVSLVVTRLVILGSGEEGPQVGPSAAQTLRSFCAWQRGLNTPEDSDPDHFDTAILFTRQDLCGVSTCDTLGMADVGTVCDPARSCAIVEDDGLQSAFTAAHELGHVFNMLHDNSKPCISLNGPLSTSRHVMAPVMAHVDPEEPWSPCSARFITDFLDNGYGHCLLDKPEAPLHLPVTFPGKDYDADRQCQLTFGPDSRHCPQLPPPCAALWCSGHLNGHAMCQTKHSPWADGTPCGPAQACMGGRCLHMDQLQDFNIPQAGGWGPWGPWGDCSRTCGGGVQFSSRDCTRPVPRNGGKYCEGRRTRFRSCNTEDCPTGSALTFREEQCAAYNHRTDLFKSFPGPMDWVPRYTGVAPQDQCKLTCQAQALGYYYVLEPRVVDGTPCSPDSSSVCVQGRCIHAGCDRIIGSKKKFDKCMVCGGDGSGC

B1: Nanobody 3B02 (VHH)
VHH: EVQLVESGGGFVQAGGSLRLSCVASRRTISSGTMGWFRQAPGKEREFVAAIRWSSGMPYYLDSVMDRFTISRDNAKNTVSLQMNSLQPEDTAVYYCAADRSAFRDPSFDVNYEYWGRGTLVTVSS
B2: Nanobody 2F03 (VHH)
VHH: EVQLVESGGGLVQAGGSLRLSCAASGRTVSSYAMGWFRLAPGKEREFVAGISRSAERTYYVDSLKGRFTISRDSAKNTVYLHMNRLKPEDTAVYYCAADLDPNRIFSREEYAYWGQGTLVTVSS
B3: Nanobody 2A12 (VHH)
VHH: B2 VHH with V29F, L39Q, E46D, E56G, L64V, H82Q, E109D, Y111A
B4: Nanobody 3D01 (VHH)
VHH: EVQLVESGGGLVQAGGSLRLSCAPSGFTFSPYYMGWFRQAPGKERDFVAAISRSRGTTYYLDSTEGRFTISRDNANDTVYLQMNSLNPEDTAVYYCAAGRSPGDPSRTYLYDYWGQGTLVTVSS
B5: Nanobody 2D07 (VHH)
VHH: EVQLVESGGGLVQAGGSLRLSCSFSGPGRTFARYAMGWFRQAPGKNRDFITGISGSGDSTYYVYPMKDRFTISRDNAKNMVYLQMNALKPEDTAVYYCAADREINRIANDKELDFWGQGTLVTVSS
B6: rhTIMP3 (protein, human, UniProt P35625 24-211, looked up)
chain: CTCSPSHPQDAFCNSDIVIRAKVVGKKLVKEGPFGTLVYTIKQMKMYRGFTKMPHVQYIHTEASESLCGLKLEVNKYQYLLTGRVYDGKMYTGLCNFVERWDQLTLSQRKGLNYRYHLGCNCKIKSCYYLPCFVTSKNECLWTDMLSNFGYPGYQSKHYACIRQKGGYCSWYRGWAPPDKSIINATDP
B7: Nanobody 9D03 (VHH)
VHH: EVQLVESGGGLVQSGGSLRLSCAASGSAVSVNAMAWYRQAPGKQRDFVAGISRSAGRTYYTDSVKDRFTIARDSAKNTVYLQMNRLKPEDTAVYYCAADLDPNRIFSRDEAAYWGQGTLVTVSS
B8: Nanobody 11B06 (VHH)
VHH: EVQLVESGGGLVQAGGSLRLSCAASGLTFRRNAMGWFRQAPGKERELLAGINWSGGTTYYVDSVKGRFTISRDNAKNTVDLQMISPKPEDTAVYYCAADGDIGTLVNDENPRYWGQGTLVTVSS

What was measured:
[1] = target: bovine recombinant ADAMTS5 (bovine); test: SPR off-rate, Biacore T100, ADAMTS5 immobilised, experiment 3
[2] = target: T1, human ADAMTS4 (R&D Systems cat #4307-AD) (human)
[3] = target: activated human MMP-1 (human) (UniProt P03956)
[4] = target: recombinant human ADAMTS5 (R&D Systems cat #2198-AD) (human) (UniProt Q9UNA0); test: cell-based or functional assay
recombinant human ADAMTS5 (R&D Systems cat #2198-AD) (human), sequence (Q9UNA0 262-622 limits assumed): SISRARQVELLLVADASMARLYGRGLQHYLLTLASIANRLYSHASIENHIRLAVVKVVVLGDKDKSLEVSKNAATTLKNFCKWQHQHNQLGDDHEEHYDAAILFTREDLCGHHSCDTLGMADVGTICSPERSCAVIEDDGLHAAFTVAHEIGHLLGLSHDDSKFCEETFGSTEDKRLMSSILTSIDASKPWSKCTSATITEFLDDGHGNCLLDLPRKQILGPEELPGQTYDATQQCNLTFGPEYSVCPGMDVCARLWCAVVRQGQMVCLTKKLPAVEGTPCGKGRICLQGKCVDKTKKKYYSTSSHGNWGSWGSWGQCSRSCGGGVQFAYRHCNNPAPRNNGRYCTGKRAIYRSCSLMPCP

activated human MMP-1 (human), sequence (P03956 100-469 limits assumed): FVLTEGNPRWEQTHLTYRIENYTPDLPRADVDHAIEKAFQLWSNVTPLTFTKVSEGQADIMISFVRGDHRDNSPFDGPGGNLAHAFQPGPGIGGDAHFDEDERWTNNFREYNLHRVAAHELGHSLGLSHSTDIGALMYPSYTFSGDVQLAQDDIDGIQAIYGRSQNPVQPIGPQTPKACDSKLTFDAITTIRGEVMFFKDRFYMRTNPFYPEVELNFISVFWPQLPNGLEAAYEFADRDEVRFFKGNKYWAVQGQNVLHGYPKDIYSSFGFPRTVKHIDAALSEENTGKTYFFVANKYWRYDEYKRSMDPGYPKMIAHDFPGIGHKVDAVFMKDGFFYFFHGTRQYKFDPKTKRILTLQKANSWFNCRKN

Binder | koff [1] | also measured
B1 | 0.0011 s⁻¹ | 
B2 | 4.3e-05 s⁻¹ | 
B3 | 0.00017 s⁻¹ | 
B4 | 0.00035 s⁻¹ | 
B5 | 0.00062 s⁻¹ | 
B6 |  | IC50 (read off the curve) (human ADAMTS-4 AlphaLISA) [right panel] [2]: 2 nM; IC50 (read off the curve) (human MMP-1 activity, FRET peptide substrate) [3]: 5 nM; Human AlphaLISA % inhibition [4]: 100%; Human AlphaLISA IC50 [4]: 0.61 nM
B7 | 0.00099 s⁻¹ | 
B8 | 0.00024 s⁻¹ | 
